Assay results published in PMC11940890.

Legend:
[1] = molecular target: equine follicle-stimulating hormone receptor wild type (eFSHR-wt) (equine) (UniProt P47799)
eFSHR-N268Q (equine) = eFSHR-N268Q (equine) (UniProt P47799)
eFSHR-N199Q (equine) = eFSHR-N199Q (equine) (UniProt P47799)
eFSHR-N293Q (equine) = eFSHR-N293Q (equine) (UniProt P47799)
eFSHR-N191Q (equine) = eFSHR-N191Q (equine) (UniProt P47799)
Sequence of eFSHR-N191Q (equine) (P47799 18-694 N191Q): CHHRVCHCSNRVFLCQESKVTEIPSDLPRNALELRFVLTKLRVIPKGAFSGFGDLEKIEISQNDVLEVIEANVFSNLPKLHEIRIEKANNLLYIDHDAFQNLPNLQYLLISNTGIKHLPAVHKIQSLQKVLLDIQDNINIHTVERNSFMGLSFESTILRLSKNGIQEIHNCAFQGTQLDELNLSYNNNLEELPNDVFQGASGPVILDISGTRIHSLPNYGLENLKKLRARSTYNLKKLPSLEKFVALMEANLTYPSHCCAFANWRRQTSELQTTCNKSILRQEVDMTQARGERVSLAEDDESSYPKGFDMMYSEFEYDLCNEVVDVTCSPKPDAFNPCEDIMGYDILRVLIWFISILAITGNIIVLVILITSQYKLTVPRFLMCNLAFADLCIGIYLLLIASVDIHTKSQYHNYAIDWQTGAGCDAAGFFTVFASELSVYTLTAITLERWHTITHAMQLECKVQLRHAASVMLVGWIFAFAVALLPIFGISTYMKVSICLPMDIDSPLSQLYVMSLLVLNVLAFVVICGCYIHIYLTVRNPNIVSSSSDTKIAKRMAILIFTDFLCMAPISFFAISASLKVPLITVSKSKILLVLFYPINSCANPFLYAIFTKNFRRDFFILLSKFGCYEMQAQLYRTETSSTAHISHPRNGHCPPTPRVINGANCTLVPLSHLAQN

Sequence of Human FSH (hFSH) (P01215 25-116): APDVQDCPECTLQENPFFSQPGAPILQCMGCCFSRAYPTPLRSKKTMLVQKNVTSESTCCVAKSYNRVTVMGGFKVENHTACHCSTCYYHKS
Sequence of Human FSH (hFSH) (P01225 19-129): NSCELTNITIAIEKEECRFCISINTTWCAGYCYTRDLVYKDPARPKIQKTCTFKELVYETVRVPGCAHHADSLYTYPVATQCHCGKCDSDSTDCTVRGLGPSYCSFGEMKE
Sequence of eFSHR-N293Q (equine) (P47799 18-694 N293Q): as the sequence (P47799 18-694 N191Q) above, with Q174N, N276Q counted along it
Sequence of eFSHR-N199Q (equine) (P47799 18-694 N199Q): as the sequence (P47799 18-694 N191Q) above, with Q174N, N182Q counted along it
Sequence of eFSHR-N268Q (equine) (P47799 18-694 N268Q): as the sequence (P47799 18-694 N191Q) above, with Q174N, N251Q counted along it
Sequence of equine follicle-stimulating hormone receptor wild type (eFSHR-wt) (equine) (P47799 18-694): as the sequence (P47799 18-694 N191Q) above, with Q174N counted along it

“Human FSH (hFSH) (from UniProt P01215 25-116; P01225 19-129) (ligand)” showed an EC50 of hFSH-stimulated cAMP response (HTRF cAMP assay), CHO-K1 cells expressing the receptor, 30 min at room temperature [1] of 0.99 µg/mL, an EC50 of hFSH-stimulated cAMP response (HTRF cAMP assay), CHO-K1 cells expressing the receptor, 30 min at room temperature (eFSHR-N268Q (equine)) of 0.806 µg/mL and an EC50 of hFSH-stimulated cAMP response (HTRF cAMP assay), CHO-K1 cells expressing the receptor, 30 min at room temperature (eFSHR-N199Q (equine)) of 2.21 µg/mL. It also gave an EC50 of hFSH-stimulated cAMP response (HTRF cAMP assay), CHO-K1 cells expressing the receptor, 30 min at room temperature (eFSHR-N293Q (equine)) of 1.24 µg/mL and an EC50 of hFSH-stimulated cAMP response (HTRF cAMP assay), CHO-K1 cells expressing the receptor, 30 min at room temperature (eFSHR-N191Q (equine)) of 2.11 µg/mL.
